Reference: patent US20090180995A1, “NOVEL ANTICOAGULANT POLYPEPTIDES AND COMPLEX” (National University of Singapore, priority 2005, published 2009)
Entries after “also recorded” stand apart in the source; their conditions may differ.

T1: FVIIa (Homo sapiens, UniProt P08709)
T1 construct: from tissue; host or cells: human plasma
T1 sequence (P08709 61-212 limits assumed): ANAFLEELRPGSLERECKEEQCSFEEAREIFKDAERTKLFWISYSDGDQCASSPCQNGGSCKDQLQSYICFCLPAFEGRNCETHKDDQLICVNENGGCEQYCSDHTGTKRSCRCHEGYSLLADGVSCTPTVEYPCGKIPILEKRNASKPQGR
T1 sequence (P08709 213-466 limits assumed): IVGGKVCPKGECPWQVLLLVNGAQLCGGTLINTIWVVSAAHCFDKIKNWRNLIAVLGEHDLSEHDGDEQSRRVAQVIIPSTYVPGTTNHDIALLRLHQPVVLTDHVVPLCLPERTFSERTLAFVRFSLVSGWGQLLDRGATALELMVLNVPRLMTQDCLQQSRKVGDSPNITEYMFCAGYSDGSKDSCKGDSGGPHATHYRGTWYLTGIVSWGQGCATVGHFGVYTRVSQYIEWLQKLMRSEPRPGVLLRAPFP

B1: hemextin A (protein)
chain: LKCKNKLVPFLSKTCPEGKNLCYKMTMLKMPKIPIKRGCTDACPKSSLLVKVVCCNKDKCN
B2: hemextin AB complex: synergistic 1:1 tetrameric complex of hemextin A and hemextin B, reconstituted from equimolar proteins (protein)
chain 1: B1 chain
chain 2: LKCKNKVVPFLKCKNKVVPFLCYKMTLKKVPKIPIKRGCTDACPKSSLLVNVMCCKTDKCN
B3: hemextin B (protein)
chain: B2 chain 2

How the values were obtained:
FVIIa = target: T1, FVIIa; test: FVIIa amidolytic activity; type: biochemical; details: absence of sTF; for inhibition of FVIIa amidolytic activity: FVIIa (300 nM)/S-2288
Experimental: (§1) Serine protease specificity—The selectivity profile of anticoagulant proteins and their complex was examined against 12 serine proteases—procoagulant serine proteases (FIXa, FXa, FXIa, FXIIa, plasma kallikrein and thrombin), anticoagulant serine protease (APC), fibrinolytic serine proteases (urokinase, t-PA and plasmin) and classical serine proteases (trypsin and chymotrypsin). Various concentrations of purified hemextin A/hemextin B and reconstituted hemextin AB complex were preincubated with each of the enzymes (Table 1) for a period of five minutes at a temperature of 37° C., followed by the addition of appropriate chromogenic substrate.
(§2) For studies with FXIa, kallikrein and urokinase, the appropriate substrates were determined prior to their screening against the inhibitors. For FXIa, the Vmax for the amidolytic activity corresponding to the chromogenic substrates S-2266, S-2302 and S-2366 was determined. S-2302 was the substrate with the highest Vmax and thus was used in the screening studies. Similar studies with kallikrein and urokinase were carried out with substrates S-2266, S-2302 and S-2288 for kallikrein and S-2444 and S-2484 for urokinase. In a total volume of 200 μl in the individual wells of the microtiter plate, final concentrations of FVIIa (300 nM)/S-2288, FVIIa-sTF (30 nM)/S-2288, FXa (0.75 nM)/S-2765, α-thrombin (0.66 nM)/S-2238, plasmin (2 nM)/S-2366, FIXa (3 μM)/spectrozyme®fIXa, FXIa (0.34 nM)/S-2366, FXIIa (0.4 nM)/S-2302, recombinant tissue plasminogen activator (80 nM)/S-2288, activated protein C (0.34 nM)/S-2366, urokinase/S-2444, plasma kallikrein (0.4 nM)/S-2302, trypsin (2.17 nM)/S-2222 and chymotrypsin (0.4 nM)/S-2586 were measured. The kinetic rate of substrate hydrolysis (mOD/min) was measured over 5 min.

Factor XIIa = test: Serine protease specificity, FXIIa; type: biochemical; details: FXIIa (0.4 nM)/S-2302
Experimental: as §1, §2

Plasma Kallikrein = Plasma Kallikrein (Homo sapiens, UniProt P03952); test: Serine protease specificity, plasma kallikrein; type: biochemical; details: for inhibitory potency towards FVIIa versus plasma kallikrein: FVIIa in the absence or presence of sTF; for Observed Effect, plasma kallikrein amidolytic activity: plasma kallikrein (0.4 nM)/S-2302
Experimental: as §1, §2

Factor XIa = Factor XIa (Homo sapiens, UniProt P03951); test: Serine protease specificity, FXIa; type: biochemical; details: FXIa (0.34 nM)
Experimental: as §1, §2

Factor IXa = Factor IXa (Homo sapiens, UniProt P00740); test: Serine protease specificity, FIXa; type: biochemical; details: FIXa (3 μM)/Spectrozyme fIXa
Experimental: as §1, §2

t-PA = t-PA (Homo sapiens, UniProt P00750); test: Serine protease specificity, t-PA; type: biochemical; details: recombinant tissue plasminogen activator (80 nM)/S-2288
Experimental: as §1, §2

TF-FVIIa complex = target: T2, TF-FVIIa complex (Homo sapiens, UniProt P08709); test: Reconstituted extrinsic tenase complex, FXa formation; type: biochemical; details: for inhibition of extrinsic tenase activity: 10 pM FVIIa, 70 nM TF, 30 nM FX, FXa by S-2222
T2 construct: tissue Dade Behring Marburg, Germany (TF, Innovin only); host or cells: human plasma (FVIIa)
Experimental: Reconstitution of the extrinsic tenase complex—TF-FVIIa complex was reconstituted by incubating 10 pM FVIIa with 70 nM of recombinant human TF (Innovin) in Buffer A (20 mM HEPES, 150 mM NaCl, 10 mM CaCl2 and 1% BSA, pH 7.4) for 10 min at 37° C. Then FX was added to the mixture to obtain a final concentration of 30 nM. The activation was stopped by the addition 50 μl of stop buffer (20 mM HEPES, 150 mM NaCl, 50 mM EDTA and 1% BSA, pH 7.4) to 50 μl aliquots of the reaction mixture after 15 min incubation. FXa formed was measured by the hydrolysis 1 mM of S-2222 in Buffer A in a microtiter plate reader at 405 nm. The inhibitory effect on extrinsic tenase activity was determined by adding the individual proteins or the anticoagulant complex 15 min prior to FX addition.

[1] = Molecular diameter by GEMMA; type: physicochemical; details: gas phase, 20 mM ammonium acetate (pH 7.4)
Experimental: (A) Gas Phase Electrophoretic Mobility Macromolecule Analyzer (GEMMA)—The molecular diameters in the gas phase were determined with GEMMA (71, 72) using a nano-differential mobility analyzer, model 3980 (TSI, St Paul, Minn., USA), and a standard CPC type 3025 (TSI, St Paul, Minn., USA). The instrument was operated in the ‘cone jet’ mode with an operating voltage between 2.5 and 3.0 kV, resulting in currents from 200 to 300 nA. Filtered ambient air at 2 l/min and a concentric sheath gas flow of filtered CO2 at 0.1/min was used to stabilize the electrospray against corona discharge. Sample solutions of hemextin A (4 ng/ml) and hemextin B (4 ng/ml) were prepared in 20 mM ammonium acetate (pH 7.4) immediately prior to the experiment. Hemextin AB complex (4.5 ng/ml) was reconstituted in the above buffer and was incubated at 37° C. for 10 min. Another three-finger protein, toxin C isolated and purified from the same venom was used as a control in the GEMMA experiments. The samples were infused into the electrospray chamber with an inlet flow rate of 100 nl/min. Twenty scans over the whole EM diameter range (0 to 25 nm) were recorded and averaged to obtain a GEMMA spectrum. No smoothing algorithm was applied for the data presentation.

Urokinase = Urokinase (Homo sapiens, UniProt P00749); test: Serine protease specificity, urokinase; type: biochemical; details: urokinase/S-2444
Experimental: as §1, §2

Trypsin = test: Serine protease specificity, trypsin; type: biochemical; details: trypsin (2.17 nM)/S-2222
Experimental: as §1, §2

Chymotrypsin = test: Serine protease specificity, chymotrypsin; type: biochemical; details: chymotrypsin (0.4 nM)/S-2586
Experimental: as §1, §2

Chain of Factor XIa (P03951 388-625 limits assumed): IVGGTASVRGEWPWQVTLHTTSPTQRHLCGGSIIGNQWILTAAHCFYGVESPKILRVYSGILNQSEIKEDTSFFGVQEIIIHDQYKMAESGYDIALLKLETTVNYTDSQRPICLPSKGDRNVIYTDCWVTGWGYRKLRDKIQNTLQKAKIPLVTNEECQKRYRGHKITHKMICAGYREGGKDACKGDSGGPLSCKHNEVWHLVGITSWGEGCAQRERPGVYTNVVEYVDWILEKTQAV
Chain of Factor XIa (P03951 19-387 limits assumed): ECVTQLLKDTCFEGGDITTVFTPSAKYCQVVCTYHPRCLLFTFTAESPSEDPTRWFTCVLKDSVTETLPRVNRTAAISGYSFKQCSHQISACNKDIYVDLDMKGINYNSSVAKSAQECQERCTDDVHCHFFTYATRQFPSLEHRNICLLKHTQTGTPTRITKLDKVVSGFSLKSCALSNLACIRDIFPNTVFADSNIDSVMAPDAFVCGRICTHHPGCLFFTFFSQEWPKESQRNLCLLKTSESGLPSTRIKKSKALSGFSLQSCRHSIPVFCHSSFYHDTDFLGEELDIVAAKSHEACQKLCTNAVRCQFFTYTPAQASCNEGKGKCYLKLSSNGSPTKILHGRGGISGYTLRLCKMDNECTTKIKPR
Chain of Plasma Kallikrein (P03952 391-638 limits assumed, species assumed): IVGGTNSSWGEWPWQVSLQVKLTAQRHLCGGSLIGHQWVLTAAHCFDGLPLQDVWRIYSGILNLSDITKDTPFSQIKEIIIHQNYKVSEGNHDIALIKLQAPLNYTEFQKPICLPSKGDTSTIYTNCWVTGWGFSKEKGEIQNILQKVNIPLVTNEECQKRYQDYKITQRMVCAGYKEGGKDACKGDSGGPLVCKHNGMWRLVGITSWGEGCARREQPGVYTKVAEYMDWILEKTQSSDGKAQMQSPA
Chain of Plasma Kallikrein (P03952 20-390 limits assumed, species assumed): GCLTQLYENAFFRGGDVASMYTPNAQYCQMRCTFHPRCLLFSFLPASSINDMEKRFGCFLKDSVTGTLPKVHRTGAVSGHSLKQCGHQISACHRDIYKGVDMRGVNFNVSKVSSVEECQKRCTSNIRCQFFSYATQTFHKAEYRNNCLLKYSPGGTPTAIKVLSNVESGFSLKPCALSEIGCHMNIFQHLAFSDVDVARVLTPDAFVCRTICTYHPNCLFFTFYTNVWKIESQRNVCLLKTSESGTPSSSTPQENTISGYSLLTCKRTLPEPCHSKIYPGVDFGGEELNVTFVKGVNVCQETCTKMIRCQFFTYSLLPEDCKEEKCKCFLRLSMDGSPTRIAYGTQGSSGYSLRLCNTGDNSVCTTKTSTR
T2 sequence (P13726 33-295 partner, one chain of several): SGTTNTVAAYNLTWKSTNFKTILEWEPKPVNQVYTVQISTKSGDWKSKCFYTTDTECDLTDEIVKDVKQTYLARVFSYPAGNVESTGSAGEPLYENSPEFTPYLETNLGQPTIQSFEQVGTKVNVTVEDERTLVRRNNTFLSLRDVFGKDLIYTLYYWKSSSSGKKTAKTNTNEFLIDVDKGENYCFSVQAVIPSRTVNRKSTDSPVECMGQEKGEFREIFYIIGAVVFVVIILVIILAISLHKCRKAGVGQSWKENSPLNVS
Chain of t-PA (P00750 36-562, species assumed): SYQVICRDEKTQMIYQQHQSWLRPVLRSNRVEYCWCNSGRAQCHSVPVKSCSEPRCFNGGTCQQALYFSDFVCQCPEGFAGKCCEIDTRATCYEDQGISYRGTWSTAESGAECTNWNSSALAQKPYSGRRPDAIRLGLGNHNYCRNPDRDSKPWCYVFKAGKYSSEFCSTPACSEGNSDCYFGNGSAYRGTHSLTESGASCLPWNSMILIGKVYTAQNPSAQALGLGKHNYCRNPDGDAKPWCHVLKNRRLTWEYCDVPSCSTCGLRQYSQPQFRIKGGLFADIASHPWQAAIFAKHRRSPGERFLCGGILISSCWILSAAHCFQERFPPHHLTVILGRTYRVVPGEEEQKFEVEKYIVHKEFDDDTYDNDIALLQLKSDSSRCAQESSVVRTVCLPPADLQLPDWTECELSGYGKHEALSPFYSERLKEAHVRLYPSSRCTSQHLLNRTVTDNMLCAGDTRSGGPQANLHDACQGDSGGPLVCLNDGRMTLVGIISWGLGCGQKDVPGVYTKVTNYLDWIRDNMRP
Chain of Factor XIIa (P00748 373-615 limits assumed): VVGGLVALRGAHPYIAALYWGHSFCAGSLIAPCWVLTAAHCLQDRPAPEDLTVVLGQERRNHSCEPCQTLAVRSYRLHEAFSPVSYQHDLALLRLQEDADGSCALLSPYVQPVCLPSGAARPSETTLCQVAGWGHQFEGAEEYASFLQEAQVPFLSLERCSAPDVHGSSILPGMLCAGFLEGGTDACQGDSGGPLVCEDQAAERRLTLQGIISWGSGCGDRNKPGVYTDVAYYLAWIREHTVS

Molecule | IC50 (FVIIa) [nM] | inhibition of FVIIa amidolytic activity (FVIIa) | Observed Effect, Factor XIIa amidolytic activity (Factor XIIa) | inhibitory potency towards FVIIa versus plasma kallikrein (Plasma Kallikrein) | Observed Effect, plasma kallikrein amidolytic activity (Plasma Kallikrein) | Observed Effect, Factor XIa amidolytic activity (Factor XIa) | Observed Effect, Factor IXa amidolytic activity (Factor IXa) | Observed Effect, t-PA amidolytic activity (t-PA) | inhibition of extrinsic tenase activity (TF-FVIIa complex) | apparent molecular diameter (GEMMA) [1] [nm] | Observed Effect, urokinase amidolytic activity (Urokinase) | Observed Effect, trypsin amidolytic activity (Trypsin) | Observed Effect, chymotrypsin amidolytic activity (Chymotrypsin) | inhibitory activity of hemextin A on extrinsic tenase with increasing hemextin B (TF-FVIIa complex; hemextin A constant at 50 μM)
B1 | ~105 | potent inhibitory activity | no inhibitory activity | at least 50 times | inhibit plasma kallikrein in a dose-dependant manner; also recorded: inhibit the amidolytic activity of plasma kallikrein | no inhibitory activity | no inhibitory activity | no inhibitory activity | mild inhibitory activity at higher concentrations | 10.2±0.38 | no inhibitory activity | no inhibitory activity | no inhibitory activity | 
B2 | ~105 | potent inhibitory activity | no inhibitory activity | at least 50 times | inhibit plasma kallikrein in a dose-dependant manner; also recorded: inhibit the amidolytic activity of plasma kallikrein | no inhibitory activity | no inhibitory activity | no inhibitory activity | completely inhibited | 16.3±0.43 | no inhibitory activity | no inhibitory activity | no inhibitory activity | 
B3 |  | did not exhibit any inhibitory activity | no inhibitory activity |  | did not inhibit | no inhibitory activity | no inhibitory activity | no inhibitory activity | did not mediate any inhibitory activity | 8.82±0.42 | no inhibitory activity | no inhibitory activity | no inhibitory activity | increases with the increasing concentrations of hemextin B until the ratio reached 1:1
